Where a SMILES comes first, the peptide text is derived from it. [ ]: non-standard residue; d: D form. dPhe(4-Cl) = N[C@H](Cc1ccc(Cl)cc1)C(=O)O; d2Nal = N[C@H](Cc1ccc2ccccc2c1)C(=O)O; dCit = NC(=O)NCCC[C@@H](N)C(=O)O; d3Pal = N[C@H](Cc1cccnc1)C(=O)O
System: C57BL6/J (B6) dams and their female offspring
Experiment: Plasma testosterone, LH and LH pulsatility in adult diestrus female offspring
Format: in vivo, mouse
Protocol: FIGS. 3A-3J-4. Prenatal AMH treatment leads to hyperandrogenism and elevation in LH secretion/pulsatility. (FIG. 3A) Anogenital distance (AGD) was measured over post-natal days (P) 30, 35, 40, 50, and 60 in adult female control (n=6-14), PAMH (n=11-19), PAMH+GnRH antag (n=10), and GnRH antag (n=4) mice. […] One-way ANOVA and Tukey's multiple comparison post hoc test, F(19-183)=130.1, ***P<0.0001 among treatment groups and ages (P30, F(3, 43)=84.48, *P<0.05, ***P<0.0001; P35, F(3, 43)=116.9, *P<0.05, ***P<0.0001; P40, F(3, 43)=207.5, *P<0.05, ***P<0.0001; P50, F(3,27)=72.69, ***P<0.0001; P60, F(3,27)=110.5, ***P<0.0001). Bars from left to right in each group: Control, PAMH, PAMH+GnRH antag, GnRH antag. (FIG. 3B) Plasma testosterone was measured in adult females (P60) in diestrus. […] One-way ANOVA and Tukey's multiple comparison post hoc test, F(2,12)=28.67, ***P<0.0001. Bars from left to right: Control, PAMH, PAMH+GnRH antag. (FIG. 3C) Plasma LH was measured in adult females (P60) in diestrus. […] One-way ANOVA and Tukey's multiple comparison post hoc test, F(2,24)=257.3, *P<0.05, ***P<0.0001. Bars from left to right: Control, PAMH,
PAMH+GnRH antag. (FIG. 3D) Schematic representation of tail-tip blood sampling in adult diestrus female mice (3-4 months old). (FIG. 3E) Tail blood was collected every 10 min for 2 h and LH measured from 10 a.m-12 p.m in adult (P60) diestrus females (Control, n=8; PAMH, n=10; PAMH+GnRH antag, n=9; One-way ANOVA and Tukey's multiple comparison post hoc test, F(2,24)=57.06, *P<0.05, ***P<0.0001). Bars from left to right: Control, PAMH, PAMH+GnRH antag. (FIGS. 2F-1, 2F-2, 2F-3) Representative graphs for LH pulsatility over 2-hr in one female adult (P60) mouse of each treatment. Asterisks in (FIG. 3F) indicate the number of LH pulses/2-hr. (FIG. 3G) Mean circulating testosterone and LH levels were analyzed in pregnant PBS-treated (n=4) and AMH-treated (n=4) dams at embryonic day (E) 19.5 of gestation. […] (FIG. 3H) Relative mRNA expression of placental Cyp191a (aromatase) in control (n=4) and AMH (n=4)-treated pregnant animals at E19.5. Cyp191a expression in the placenta is higher in AMH-treated pregnant dams as compared to control-treated pregnant dams (Unpaired Student's t-test, t(6)=5.414, **P<0.005). Values are expressed as relative to the mean of each treatment. All values are expressed as mean±s.e.m. (FIGS. 3I-1, 3I-2, 3I-3, 3I-4) Dams were injected from E16.5 to E18.5 with either PBS (vehicle, n=9-11), AMH (n=8-10), AMH+GnRH antag (n=5) and trunk blood was collected at E19.5 for hormonal measurements by ELISA. Data were combined from at least two independent experiments. In FIGS. 3I-1, 3I-2, 3I-3, 3I-4: left bar: vehicle; middle bar: AMH; right bar: AMH+GnRH antagonist. […]

[1] = dams i.p. 0.12 mg/Kg/d E16.5-E18.5, adult female offspring in diestrus vs control

## CC(=O)N[C@H](Cc1ccc2ccccc2c1)C(=O)N[C@H](Cc1ccc(Cl)cc1)C(=O)N[C@H](Cc1cccnc1)C(=O)N[C@@H](CO)C(=O)N[C@@H](Cc1ccc(O)cc1)C(=O)N[C@H](CCCNC(N)=O)C(=O)N[C@@H](CC(C)C)C(=O)N[C@@H](CCCNC(=N)N)C(=O)N1CCC[C@H]1C(=O)N[C@H](C)C(N)=O [Cetrorelix acetate, Ac-D-2Nal-D-Phe(4-Cl)-D-3Pal-Ser-Tyr-D-Cit-Leu-Arg-Pro-D-Ala-NH2] (Ac-[d2Nal][dPhe(4-Cl)][d3Pal]SY[dCit]LRP[dA]-NH2)
Prenatal co-treatment of AMH with the GnRH antagonist
  PCOS-like neuroendocrine traits in the offspring: prevented the appearance

B1: proAMH: AMH proprotein (Origene Technologies, Cat # TP308397), injected prenatally 0.12 mg/Kg/d (protein, UniProt P03971 25-560, looked up)
pro-form: LRAEEPAVGTSGLIFREDLDWPPGSPQEPLCLVALGGDSNGSSSPLRVVGALSAYEQAFLGAVQRARWGPRDLATFGVCNTGDRQAALPSLRRLGAWLRDPGGQRLVVLHLEEVTWEPTPSLRFQEPPPGGAGPPELALLVLYPGPGPEVTVTRAGLPGAQSLCPSRDTRYLVLAVDRPAGAWRGSGLALTLQPRGEDSRLSTARLQALLFGDDHRCFTRMTPALLLLPRSEPAPLPAHGQLDTVPFPPPRPSAELEESPPSADPFLETLTRLVRALRVPPARASAPRLALDPDALAGFPQGLVNLSDPAALERLLDGEEPLLLLLRPTAATTGDPAPLHDPTSAPWATALARRVAAELQAAAAELRSLPGLPPATAPLLARLLALCPGGPGGLGDPLRALLLLKALQGLRVEWRGRDPRGPGRAQRSAGATAADGPCALRELSVDLRAERSVLIPETYQANNCQGVCGWPQSDRNPRYGNHVVLLLKMQVRGAALARPPCCVPTAYAGKLLISLSEERISAHHVPNMVATECGCR
modifications: pro-form
notes: AMH proprotein (Origene Technologies, Cat # TP308397), injected prenatally 0.12 mg/Kg/d
[1]
  plasma LH: increased
  plasma testosterone: increased
Dams i.p. 0.12 mg/Kg/d E16.5-E18.5, adult female offspring in diestrus, tail blood every 10 min for 2 h
  LH pulse frequency / pulsatility: constitutively high LH pulsatility

Reference: US12208130B2, “Treatment of women affected with polycystic ovary syndrome” (INSTITUT NATIONAL DE LA SANTE ET DE LA RECHERCHE MEDICALE …, priority 2017, dated 2025)
